Data: PMC9371678

Molecular target: HA-PTH1R_(mTurquoise/mCitrine) (human) (UniProt Q03431)
UniProt Q03431, sequence (Q03431 27-593): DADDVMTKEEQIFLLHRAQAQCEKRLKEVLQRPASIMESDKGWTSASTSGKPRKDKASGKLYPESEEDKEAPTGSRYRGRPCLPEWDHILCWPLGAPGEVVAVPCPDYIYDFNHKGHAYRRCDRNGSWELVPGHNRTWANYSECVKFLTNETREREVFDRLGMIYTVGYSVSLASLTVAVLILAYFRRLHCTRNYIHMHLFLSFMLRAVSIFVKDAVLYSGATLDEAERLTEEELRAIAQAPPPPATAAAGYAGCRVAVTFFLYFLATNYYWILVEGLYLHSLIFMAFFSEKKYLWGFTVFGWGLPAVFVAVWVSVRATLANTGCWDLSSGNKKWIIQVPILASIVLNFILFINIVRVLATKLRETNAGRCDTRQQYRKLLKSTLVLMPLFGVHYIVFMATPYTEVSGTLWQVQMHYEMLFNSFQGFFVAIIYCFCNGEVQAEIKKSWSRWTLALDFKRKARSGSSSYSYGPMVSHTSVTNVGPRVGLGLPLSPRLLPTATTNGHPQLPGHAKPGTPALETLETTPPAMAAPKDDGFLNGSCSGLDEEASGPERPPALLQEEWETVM

pEC50 of the PTH-induced FRET change of the PTH1R (FRET) conformational biosensor (plate reader, HEK293 cells), with RAMP2 (SNAP) coexpressed (1 µg cDNA): 8.59 | pEC50 of the PTH-induced FRET change of the PTH1R (FRET) conformational biosensor (plate reader, HEK293 cells), without RAMP2: 8.73
Substance: parathyroid hormone PTH (1–34) (peptide)
